Measurements reported in patent publication US20240116985A1 (published 2024).
Each block holds one binder with its values, some of them ahead of it. Starred links: 1 amine or outer side, 2 acyl side, 3 side chain; linkers in the order of their positions; H or OH if unused. Positions of bridges follow the written chain, without caps; N, C: chain ends. Non-standard residues stand in square brackets, D forms with d. Primed or numbered codes have the meaning given here. No end group written: not given here. *: point of attachment. PyrS2″ = (S)-3-amino-1-((pent-4-en-1-yloxy)carbonyl)pyrrolidine-3-carboxylic acid (stapling residue), C=CCCCOC(=O)N1CC[C@@](N[*:1])(C(=O)[*:2])C1; B5(4) = 2,2-bis(4-pentenyl)glycine = 2-amino-2-(pent-4-en-1-yl)hept-6-enoic acid (stitching residue), C=CCCCC(CCCC=C)(N[*:1])C(=O)[*:2]; TfeGA = (S)-2-amino-3-((carboxymethyl)(2,2,2-trifluoroethyl)amino)propanoic acid, O=C([C@H](CN(CC(=O)[*:3])CC(F)(F)F)N[*:1])[*:2]; PyrS2 = (S)-3-amino-1-((pent-4-en-1-yloxy)carbonyl)pyrrolidine-3-carboxylic acid, C=CCCCOC(=O)N1CC[C@@](N[*:1])(C(=O)[*:2])C1; (Morph)GlnR = (S)-2-amino-5-morpholino-5-oxopentanoic acid, O=C(CC[C@H](N[*:1])C(=O)[*:2])N1CCOCC1; B5(3) = 2,2-bis(4-pentenyl)glycine (stitching residue), C=CCCCC(CCCC=C)(N[*:1])C(=O)[*:2]; Phe(3-COOH) = N[C@@H](Cc1cccc(C(=O)O)c1)C(=O)O; 2F3MeF = Cc1cccc(C[C@H](N[*:1])C(=O)[*:2])c1F; Phe(2-CF3) = N[C@@H](Cc1ccccc1C(F)(F)F)C(=O)O; Phe(2-Cl) = N[C@@H](Cc1ccccc1Cl)C(=O)O; Bta = N[C@@H](Cc1csc2ccccc12)C(=O)O; αAllylPro = C=CC[C@@]1(C(=O)O)CCCN1; tBuAla = CC(C)(C)C[C@H](N)C(=O)O; 3Thi = N[C@@H](Cc1ccsc1)C(=O)O; S8 = C=CCCCCCC[C@](C)(N)C(=O)O; PyrS2(4) = not defined here; Leu(ol) = CC(C)C[C@H](N)CO; hSer = N[C@@H](CCO)C(=O)O; Alaol = C[C@@H](CO)N*

Experiments:
[1] = target: T1, Bcat-Halo (UniProt P35222 1-781); test: cell-based or functional assay
T1 sequence (looked up): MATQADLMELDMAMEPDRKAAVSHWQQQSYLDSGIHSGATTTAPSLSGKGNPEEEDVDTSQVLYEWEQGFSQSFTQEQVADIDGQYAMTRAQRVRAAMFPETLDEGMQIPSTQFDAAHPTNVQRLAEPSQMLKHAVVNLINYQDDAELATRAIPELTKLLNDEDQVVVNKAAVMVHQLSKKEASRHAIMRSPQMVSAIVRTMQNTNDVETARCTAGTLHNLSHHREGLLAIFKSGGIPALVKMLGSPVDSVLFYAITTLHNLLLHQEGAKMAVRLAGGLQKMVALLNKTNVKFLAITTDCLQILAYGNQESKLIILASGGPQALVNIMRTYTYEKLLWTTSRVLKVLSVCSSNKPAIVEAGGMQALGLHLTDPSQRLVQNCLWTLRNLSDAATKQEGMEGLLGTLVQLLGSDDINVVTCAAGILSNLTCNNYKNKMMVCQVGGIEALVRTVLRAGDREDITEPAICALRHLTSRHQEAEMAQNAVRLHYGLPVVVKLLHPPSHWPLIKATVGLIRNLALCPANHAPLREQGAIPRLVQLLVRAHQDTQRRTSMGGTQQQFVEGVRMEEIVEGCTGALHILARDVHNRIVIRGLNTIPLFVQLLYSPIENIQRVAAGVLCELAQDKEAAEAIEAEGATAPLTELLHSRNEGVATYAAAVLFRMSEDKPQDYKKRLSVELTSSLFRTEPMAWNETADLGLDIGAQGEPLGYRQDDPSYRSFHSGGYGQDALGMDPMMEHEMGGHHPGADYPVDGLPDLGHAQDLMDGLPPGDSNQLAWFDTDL

[2] = target: T2, beta-catenin in DLD1 TCF/LEF luciferase reporter cells (UniProt P35222 2-781); test: cell-based or functional assay
T2 sequence (looked up): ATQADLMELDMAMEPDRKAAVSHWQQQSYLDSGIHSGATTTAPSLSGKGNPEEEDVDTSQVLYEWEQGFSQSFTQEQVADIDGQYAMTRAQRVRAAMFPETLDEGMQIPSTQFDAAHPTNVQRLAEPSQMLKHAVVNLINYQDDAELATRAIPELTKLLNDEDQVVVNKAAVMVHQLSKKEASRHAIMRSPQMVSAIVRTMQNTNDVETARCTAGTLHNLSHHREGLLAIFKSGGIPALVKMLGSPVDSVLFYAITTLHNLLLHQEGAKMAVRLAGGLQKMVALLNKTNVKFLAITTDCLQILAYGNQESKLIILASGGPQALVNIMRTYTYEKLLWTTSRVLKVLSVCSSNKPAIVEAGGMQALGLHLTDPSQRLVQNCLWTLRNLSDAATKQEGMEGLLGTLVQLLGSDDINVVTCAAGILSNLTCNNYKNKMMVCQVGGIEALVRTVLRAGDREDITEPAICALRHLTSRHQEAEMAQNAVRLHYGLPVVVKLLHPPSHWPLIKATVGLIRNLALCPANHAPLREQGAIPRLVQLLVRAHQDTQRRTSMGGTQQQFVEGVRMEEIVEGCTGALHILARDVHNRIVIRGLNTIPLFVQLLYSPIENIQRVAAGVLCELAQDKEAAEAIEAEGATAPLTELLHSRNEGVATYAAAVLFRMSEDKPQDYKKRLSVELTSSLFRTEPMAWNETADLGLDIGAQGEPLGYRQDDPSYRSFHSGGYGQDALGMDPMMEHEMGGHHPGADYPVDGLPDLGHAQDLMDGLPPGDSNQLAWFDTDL

[3] = target: T3, beta-catenin in DLD1 TCF/LEF luciferase reporter cells (UniProt P35222 1-781); test: cell-based or functional assay
T3 sequence (looked up): T1 sequence (looked up)

[4] = target: T4, B-cat-Halo (beta-catenin HaloTag construct expressed in HEK293 cells) (UniProt P35222 1-781); test: cell-based or functional assay
T4 sequence (looked up): T1 sequence (looked up)

[5] = target: T5, full-length beta-Catenin (Uniprot ID P35222) (Homo sapiens (Human), UniProt P35222 2-781); test: fluorescence polarization competition; full-length beta-catenin, competitor 5FAM-TCF4(10-53) probe
T5 construct: Also used here for the endogenous beta-catenin of the DLD1 TCF reporter cells; also called bCat; B-Catenin
T5 sequence: T2 sequence (looked up)
How it was run: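 Data fitted to 1:1 binding model with hill slope from duplicate reads taken after 60 minutes at 20° C. in the dark.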

[6] = target: T6, Bcat-Halo (UniProt P35222 1-781); test: NanoBRET in HEK293 cells, Bcat-Halo/TCF4-Luc (competitor TCF4-Luc); absolute IC50
T6 construct: Construct transfected into HEK293 cells for NanoBRET; not shown: HaloTag fusion partner
T6 sequence (looked up): T1 sequence (looked up)

[7] = target: T7, beta-catenin in DLD1 TCF/LEF luciferase reporter cells (UniProt P35222 1-781); test: cell-based or functional assay; remark: listed apart in the source
T7 sequence (looked up): T1 sequence (looked up)

[8] = target: T8, B-cat-Halo (beta-catenin HaloTag construct transfected into HEK293 cells) (UniProt P35222 1-781); test: cell-based or functional assay
T8 sequence (looked up): T1 sequence (looked up)

[9] = target: T9, B-cat-Halo (UniProt P35222 1-781); test: cell-based or functional assay
T9 sequence (looked up): T1 sequence (looked up)

[10] = target: T10, beta-catenin in DLD1 TCF/LEF luciferase reporter cells (UniProt P35222 1-781); test: cell-based or functional assay; remark: listed apart in the source
T10 sequence (looked up): T1 sequence (looked up)

[11] = target: T11, B-cat-Halo (Nano-BRET construct expressed in HEK293 cells) (UniProt P35222 1-781); test: cell-based or functional assay
T11 sequence (looked up): T1 sequence (looked up)

[12] = target: T12, B-cat-Halo (UniProt P35222 1-781); test: cell-based or functional assay; remark: listed apart in the source
T12 sequence (looked up): T1 sequence (looked up)

[13] = target: T13, beta-catenin in DLD1 TCF/LEF luciferase reporter cells (UniProt P35222 1-781); test: cell-based or functional assay; remark: listed apart in the source
T13 sequence (looked up): T1 sequence (looked up)

[14] = target: T14, B-cat-Halo (beta-catenin HaloTag NanoBRET construct expressed in HEK293 cells) (UniProt P35222 2-781); test: cell-based or functional assay
T14 sequence (looked up): T2 sequence (looked up)

[15] = target: T15, beta-catenin in DLD1 TCF/LEF luciferase reporter cells (UniProt P35222 2-781); test: cell-based or functional assay; remark: listed apart in the source
T15 sequence (looked up): T2 sequence (looked up)

B1: I-2315 (peptide)
peptide: Ac-[αAllylPro]D[tBuAla][B5(4)]D[Phe(3-COOH)][(Morph)GlnR]AFL[PyrS2″][2F3MeF][Bta]A-NH2
modifications: staple 1-4, 4-11
NanoBRET Abs IC50 [1]: 1.2 µM | DLD1 4% Abs IC50 [2]: 1.5 µM

B3: I-752 (peptide)
peptide: Ac-[αAllylPro]DL[B5(4)]DEAAFN[S8]F[Bta]N-NH2
modifications: staple 1-4, 4-11; also: olefin E/Z not assigned, earlier-eluting staple isomer
notes: Stapled peptide composition
EC50 [5]: 0.016 µM | IC50 [6]: 9.9 µM

B6: I-873 (peptide)
peptide: Ac-[αAllylPro]D[tBuAla][B5(3)]DDAAFN[PyrS2″][3Thi][Bta]QAA
modifications: staple 1-4, 4-11; not fully specified; printed as Ac-PL3-Asp-Npg-B5-Asp-Asp-Ala-Ala-Phe-Asn-PyrS2-3Thi-BztA-Gln-Ala-Ala
NanoBRET IC50 [11]: 8.9 µM

B7: I-1318 (peptide)
peptide: Ac-[αAllylPro]D[tBuAla][B5(4)]DDAAFL[PyrS2″][Phe(2-CF3)][Bta]Q-NH2
modifications: staple 1-4, 4-11
NanoBRET Abs IC50 [12]: 4.8 µM | DLD1 4% Abs IC50 [13]: 3.9 µM

B8: I-1081 (peptide)
peptide: Ac-[αAllylPro]D[tBuAla][B5(3)]DDAAFN[PyrS2″][Phe(2-Cl)][Bta]-Alaol
modifications: staple 1-4, 4-11
NanoBRET Abs IC50 [14]: 16.7 µM | DLD1 4% Abs IC50 [15]: 10.6 µM

Next, values leading:

DLD1 4% Abs IC50 (uM); TCF/LEF luciferase reporter assay [3]: 5.7 µM | NanoBRET Abs IC50 (uM); Bcat-Halo / TCF4-Luc in HEK293 cells [4]: 5.9 µM
B2: I-2520 (peptide)
peptide: Ac-[αAllylPro]D[tBuAla][B5(4)]DXQAFL[PyrS2][Phe(2-CF3)][Bta]A-NH2
modifications: staple 1-4, 4-11; not fully specified (residue 6); printed as Ac-PL3-Asp-Npg-B5-Asp-[CH2CChCO2H]TriAzDap-Gln-Ala-Phe-Leu-PyrS2-2F3MeF-BztA-Ala-NH2

DLD1 4% Abs IC50 [7]: 6.5 µM | NanoBRET Abs IC50 [8]: 4 µM
B4: I-1918 (peptide)
peptide: Ac-[αAllylPro]D[tBuAla][B5(4)]D[Phe(3-COOH)]QAFL[PyrS2(4)][3Thi][Bta]A-NH2
modifications: staple 1-4, 4-11; not fully specified; printed as Ac-PL3-Asp-Npg-B5-Asp-3COOHF-Gln-Ala-Phe-Leu-PyrS2-3Thi-BztA-Ala-NH2; reading uncertain

NanoBRET Abs IC50 [9]: 4.9 µM | DLD1 4% Abs IC50 [10]: 1.8 µM
B5: I-993 (peptide)
peptide: Ac-[αAllylPro]D[tBuAla][B5(3)]D[TfeGA]AAF[hSer][PyrS2″][Phe(2-Cl)][Bta][hSer]-NH2
modifications: staple 1-4, 4-11

NanoBRET Abs IC50 [14]: > 20 µM | DLD1 4% Abs IC50 [15]: 10.4 µM
B9: I-1080 (peptide)
peptide: Ac-[αAllylPro]D[tBuAla][B5(4)]DDAAFN[PyrS2″][Phe(2-Cl)][Bta][Leu(ol)]
modifications: staple 1-4, 4-11
